Source: patent US20140094416A1, “SPARC ANGIOGENIC DOMAIN AND METHODS OF USE” (Abraxis BioScience, LLC, priority 2009, published 2014)

Legend:
[1] = tested on: PC3 model; assay: Tumor volume in mice, PC3 model; type: in vivo
Procedure: Tumor volume was measured in mice being treated with Abraxane alone (15 mg/kg administered daily for five days), Abraxane and Sutent (the Sutent administered at 30 mg/kg daily for 8 weeks), Abraxane and exogenous SPARC (the SPARC at […] administered twice a week for eight weeks), and finally, Abraxane, Sutent and SPARC together.
FIG. 1 depicts a graph plotting tumor volume (mm^3) against time (days) for these test conditions.

[2] = tested on: HUVEC; assay: HUVEC sprout formation bead assay; type: cell-based; conditions: addition of rhSPARC
Procedure: (§1) Recombinant human SPARC and genetically engineered variants were expressed and purified using HEK 293 cells maintained in hollow fiber bio-reactors. The angiogenic activity of rhSPARC and its variants was evaluated using a HUVEC tube formation assay and a HUVEC sprout formation bead assay.
(§2) In the HUVEC tube formation assay, rhSPARC was pro-angiogenic at 10 μg/mL and anti-angiogenic at 100 μg/mL. […] Additional rhSPARC variants with deletions and single/double amino acid substitutions tested in these assays included: Q3 deletion (BIO2), an inversion of the putative angiogenic domain (BIO5), a double K>Q substitution in the proposed angiogenic domain (BIO11), the genetic ablation of the putative catephsin K recognition sites (BIO8), and a proteolytic degradation product of rhSPARC. End terminal amino acid analysis indicated the angiogenic activity is localized to SEQ ID NO: 1.

[3] = tested on: HUVEC; assay: HUVEC (3-D) tube formation assay; type: cell-based
Procedure: as §1, §2
FIG. 4 depicts the results of a HUVEC 3-D tube formation assay conducted with wild type SPARC and SPARC-D. The angiogenic behavior of wild type SPARC, as described in the previous example, can be seen in the graph; the angiogenic behavior increases as the concentration approaches 10 ug/ml and drops off as it approaches 100 ug/ml.

Molecule | efficacy of the SPARC/Abraxane combination (tumor volume) ([1]; Sutent 30 mg/kg daily for 8 weeks added to SPARC and Abraxane) | decrease in tumor volume ([1]; Sutent 30 mg/kg daily for 8 weeks with Abraxane, versus Abraxane alone) | blood vessel maturity in sprout formation [2] | angiogenic activity ([3]; 10 μg/mL, listed as rhSPARC) | angiogenic activity ([3]; 10 μg/mL, listed as wild type SPARC) | angiogenic activity ([3]; 100 μg/mL, listed as rhSPARC) | angiogenic activity ([3]; 100 μg/mL, listed as wild type SPARC) | tumor volume ([1]; exogenous SPARC 0.2 mg/ms twice a week for eight weeks with Abraxane, versus Abraxane alone) | effect on synergy of Abraxane and Sutent (tumor volume) ([1]; exogenous SPARC along with Abraxane and Sutent)
CCN(CC)CCNC(=O)c1c(C)[nH]c(/C=C2\C(=O)Nc3ccc(F)cc32)c1C [Sutent®, reference compound] | markedly improved | far greater decrease in tumor volume | – | – | – | – | – | – | –
SPARC: Secreted Protein, Acidic, Rich in Cysteines; recombinant human SPARC expressed and purified using HEK 293 cells (protein, listed as Homo sapiens) APQQEALPDETEVVEETVAEVTEVSVGANPVQVEVGEFDDGAEETEEEVVAENPCQNHHCKHGKVCELDENNTPMCVCQDPTSCPAPIGEFEKVCSNDNKTFDSSCHFFATKCTLEGTKKGHKLHLDYIGPCKYIPPCLDSELTEFPLRMRDWLKNVLVTLYERDEDNNLLTEKQKLRVKKIHENEKRLEAGDHPVELLARDFEKNYNMYIFPVHWQFGQLDQHPIDGYLSH | – | – | more mature blood vessels well supported by pericytes | pro-angiogenic | increases | anti-angiogenic | drops off | tumor volume is slightly greater | negates some of the synergistic affect
